Data reported in PMC2173304.

Target: peptide corresponding to the cytoplasmic tail of lysosomal acid phosphatase (LAP) (UniProt P11117)
Test: SPR

UniProt P11117, sequence (P11117 402-423): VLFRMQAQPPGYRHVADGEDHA

AP2 complex from pig brain, dephosphorylated with calf intestinal alkaline phosphatase
fold decrease in affinity against untreated AP2: > 4 fold
